Measured values as given in patent US20210009673A1, “METHODS FOR REGULATING BREAST CANCERS” (priority 2018, published 2021).

Test system: β-catenin
Assay: tyrosine phosphorylation of β-catenin in PTN-stimulated U87MG cells
Format: cell-based, human
Conditions: control U87MG cells; 50 ng PTN/ml
Protocol: FIG. 1: FIG. 1 illustrates in (A) PTN stimulation of tyrosine phosphorylation of β-catenin in cells that express RPTPβ/ζ and ALK. COS7 cells transiently expressing ALK and RPTPβ/ζ were stimulated with 10 ng PTN/ml. Cell lysates were prepared and used to immunoprecipitate β-catenin. The immunoprecipitates were analyzed in Western blots probed with anti-phosphotyrosine antibodies. Lane 1, cells transfected with ALK that were not stimulated with PTN. Lane 2, cells transfected with ALK stimulated with PTN. Lane 3, cells transfected with empty vector not stimulated with PTN. Lane 4, cells transfected with empty vector stimulated with PTN. […] The immunoprecipitates were analyzed in Western blots probed with anti-phosphotyrosine antibodies. […] Cell lysates were used to immunoprecipitate β-catenin and the immunoprecipitates were analyzed in Western blots probed with anti-phospho-tyrosine antibodies and reprobed with anti-β-catenin antibodies. […] MCF-7 cells that stably express EGFR/RPTPβ/ζ not transfected with ALK were analyzed as above. […] Lysates of MCF-7 cells and lysates of MCF-7 cells stimulated with EGF were used to immunoprecipitate β-catenin and the immunoprecipitates were analyzed in Western blots probed with anti-phospho-tyrosine antibodies and separately with anti-β-catenin antibodies. […]

B1: pleiotrophin (protein, UniProt P21246 33-168, looked up)
Pleiotrophin: GKKEKPEKKVKKSDCGEWQWSVCVPTSGDCGLGTREGTRTGAECKQTMKTQRCKIPCNWKKQFGAECKYQFQAWGECDLNTALKTRTGSLKRALHNAECQKTVTISKPCGKLTKPKPQAESKKKKKEGKKQEKMLD
phosphorylation of β-catenin: sharply increased
